Article PMC3509593, “Role of Key Residues at the Flavin Mononucleotide (FMN):Adenylyltransferase Catalytic Site of the Bifunctional Riboflavin Kinase/Flavin Adenine Dinucleotide (FAD) Synthetase from Corynebacterium ammoniagenes” (International Journal of Molecular Sciences, 2012)

Molecular target: the molecule itself
Test: SEC; gel filtration of the purified samples on a HiPrep 26/60 Sephacryl S-200 HR column, used to separate the monomeric fraction

B1: FAD synthetase from Corynebacterium ammoniagenes (wild type) (enzyme)
chain: MDIWYGTAAVPKDLDNSAVTIGVFDGVHRGHQKLINATVEKAREVGAKAIMVTFDPHPVSVFLPRRAPLGITTLAERFALAESFGIDGVLVIDFTRELSGTSPEKYVEFLLEDTLHASHVVVGANFTFGENAAGTADSLRQICQSRLTVDVIDLLDDEGVRISSTTVREFLSEGDVARANWALGRHFYVTGPVVRGAGRGGKELGFPTANQYFHDTVALPADGVYAGWLTILPTEAPVSGNMEPEVAYAAAISVGTNPTFGDEQRSVESFVLDRDADLYGHDVKVEFVDHVRAMEKFDSVEQLLEVMAKDVQKTRTLLAQDVQAHKMAPETYFLQAES
notes: FAD synthetase (bifunctional RFK/FMNAT) of Corynebacterium ammoniagenes; N-terminal FMNAT-module residues 1-186 and C-terminal RFK-module residues 187-338; also called CaFADS; WT CaFADS; source: gel filtration on Sephacryl S-200 HR
binding result: binds
